According to paper PMC5063997, “Engineered Tissue Inhibitor of Metalloproteinases-3 Variants Resistant to Endocytosis Have Prolonged Chondroprotective Activity*” (The Journal of Biological Chemistry, 2016):

T1: catalytic domain of MMP-1 (MMP-1ΔC) (UniProt P03956 100-269)
T1 construct: MMP-1, catalytic domain
T1 sequence (looked up): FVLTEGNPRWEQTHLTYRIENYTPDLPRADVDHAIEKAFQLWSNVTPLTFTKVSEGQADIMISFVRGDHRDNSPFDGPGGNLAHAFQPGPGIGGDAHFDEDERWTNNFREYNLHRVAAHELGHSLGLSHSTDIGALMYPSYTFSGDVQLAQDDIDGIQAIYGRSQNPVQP

T2: ADAMTS-5 lacking the C-terminal thrombospondin domain (UniProt Q9UNA0 262-874)
T2 construct: ADAMTS-5 without its C-terminal thrombospondin domain
T2 sequence (looked up): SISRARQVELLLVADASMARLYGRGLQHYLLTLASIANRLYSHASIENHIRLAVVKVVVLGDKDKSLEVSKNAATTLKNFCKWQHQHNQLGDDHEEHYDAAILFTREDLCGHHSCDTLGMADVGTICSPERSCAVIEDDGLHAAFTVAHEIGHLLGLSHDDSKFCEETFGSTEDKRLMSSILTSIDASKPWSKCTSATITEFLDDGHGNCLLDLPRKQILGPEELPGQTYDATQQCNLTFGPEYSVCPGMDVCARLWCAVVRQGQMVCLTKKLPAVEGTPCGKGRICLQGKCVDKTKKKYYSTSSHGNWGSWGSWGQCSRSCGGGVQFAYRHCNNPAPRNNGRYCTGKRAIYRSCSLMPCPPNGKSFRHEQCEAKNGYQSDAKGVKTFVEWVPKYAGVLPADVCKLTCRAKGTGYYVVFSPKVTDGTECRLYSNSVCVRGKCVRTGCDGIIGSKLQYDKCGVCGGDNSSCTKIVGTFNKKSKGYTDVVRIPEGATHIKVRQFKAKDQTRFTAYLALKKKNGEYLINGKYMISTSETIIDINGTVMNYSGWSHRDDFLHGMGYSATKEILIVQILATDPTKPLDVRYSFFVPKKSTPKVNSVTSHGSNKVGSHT

T3: ADAMTS-4 lacking the C-terminal spacer domain (UniProt O75173 213-685)
T3 construct: ADAMTS-4 without its C-terminal spacer domain
T3 sequence (looked up): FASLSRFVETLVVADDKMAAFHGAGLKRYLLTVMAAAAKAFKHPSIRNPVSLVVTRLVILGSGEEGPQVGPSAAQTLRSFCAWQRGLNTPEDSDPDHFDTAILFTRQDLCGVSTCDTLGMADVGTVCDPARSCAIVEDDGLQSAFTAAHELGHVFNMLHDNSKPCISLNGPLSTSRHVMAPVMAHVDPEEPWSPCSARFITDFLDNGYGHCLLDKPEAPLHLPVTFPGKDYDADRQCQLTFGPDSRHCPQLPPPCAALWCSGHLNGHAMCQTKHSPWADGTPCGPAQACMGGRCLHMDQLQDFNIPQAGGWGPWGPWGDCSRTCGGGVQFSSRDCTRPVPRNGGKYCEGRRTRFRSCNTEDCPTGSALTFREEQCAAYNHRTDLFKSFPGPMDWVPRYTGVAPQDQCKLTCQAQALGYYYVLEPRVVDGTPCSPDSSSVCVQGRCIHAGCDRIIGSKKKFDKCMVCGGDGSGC


How the values were obtained:
[1] = molecular target: T1, catalytic domain of MMP-1 (MMP-1ΔC); experiment: enzyme inhibition under equilibrium conditions (Ki(app), tight binding equation); apparent; metalloproteinase (0.5-1 nM) preincubated with wild-type or mutant TIMP-3 (0.25-25 nM) 1 h at 37 °C, residual activity on fluorescence-quenched substrates; 50 mM Tris-HCl pH 7.5, 150 mM NaCl, 10 mM CaCl2, 0.05% Brij 35, 0.02% NaN3; conditions: both partners purified
[2] = molecular target: T2, ADAMTS-5 lacking the C-terminal …; experiment: as above; conditions: both partners purified
[3] = molecular target: T3, ADAMTS-4 lacking the C-terminal spacer …; experiment: as above; conditions: both partners purified
[4] = molecular target: T4, catalytic domain of MMP-2 (MMP-2ΔC) (UniProt P08253 110-444); experiment: as above; conditions: both partners purified
T4 construct: MMP-2, catalytic domain

[5] = molecular target: T5, catalytic domain of MMP-3 (MMP-3ΔC) (UniProt P08254 100-272); experiment: as above; conditions: both partners purified
T5 construct: MMP-3, catalytic domain

[6] = molecular target: low density lipoprotein receptor-related protein 1 (LRP1), full-length (UniProt Q07954 20-4544); experiment: cell-based or functional assay
ADAM17 ectodomain = molecular target: T6, ADAM17 ectodomain (UniProt P78536 215-671); experiment: enzyme inhibition under equilibrium conditions (Ki(app), tight binding equation); apparent; ADAM17 preincubated with wild-type or mutant TIMP-3 (0.25-25 nM) 1 h at 37 °C, residual activity on a fluorescence-quenched substrate; 50 mM Tris-HCl pH 7.5, 25 mM NaCl, 10 mM CaCl2, 0.05% Brij 35, 0.02% NaN3; conditions: both partners purified
T6 construct: ADAM17, ectodomain; source: gift from Professor Gillian Murphy (University of Cambridge)

[7] = molecular target: T2, ADAMTS-5 lacking the C-terminal …; experiment: enzyme inhibition under equilibrium conditions (Ki(app), tight binding equation); apparent; ADAMTS-5 (0.5 nM) preincubated with TIMP-3 (0.5-10 nM) with heparin (100 nM) 1 h at 37 °C, residual activity 18 h at 37 °C; 50 mM Tris-HCl pH 7.5, 150 mM NaCl, 10 mM CaCl2, 0.05% Brij 35, 0.02% NaN3; conditions: both partners purified

T4 sequence (P08253 110-444, stated change not applied): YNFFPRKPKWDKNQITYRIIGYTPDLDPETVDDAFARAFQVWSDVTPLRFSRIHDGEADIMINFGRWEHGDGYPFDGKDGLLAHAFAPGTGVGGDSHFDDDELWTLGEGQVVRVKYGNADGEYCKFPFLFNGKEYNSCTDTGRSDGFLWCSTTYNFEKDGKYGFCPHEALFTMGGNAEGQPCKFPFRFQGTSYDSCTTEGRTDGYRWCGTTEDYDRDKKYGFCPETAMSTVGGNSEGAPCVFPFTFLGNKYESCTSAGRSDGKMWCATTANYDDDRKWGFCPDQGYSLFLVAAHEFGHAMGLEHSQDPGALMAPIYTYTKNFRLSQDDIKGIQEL
low density lipoprotein receptor-related protein 1 (LRP1), full-length, sequence (Q07954 20-4544): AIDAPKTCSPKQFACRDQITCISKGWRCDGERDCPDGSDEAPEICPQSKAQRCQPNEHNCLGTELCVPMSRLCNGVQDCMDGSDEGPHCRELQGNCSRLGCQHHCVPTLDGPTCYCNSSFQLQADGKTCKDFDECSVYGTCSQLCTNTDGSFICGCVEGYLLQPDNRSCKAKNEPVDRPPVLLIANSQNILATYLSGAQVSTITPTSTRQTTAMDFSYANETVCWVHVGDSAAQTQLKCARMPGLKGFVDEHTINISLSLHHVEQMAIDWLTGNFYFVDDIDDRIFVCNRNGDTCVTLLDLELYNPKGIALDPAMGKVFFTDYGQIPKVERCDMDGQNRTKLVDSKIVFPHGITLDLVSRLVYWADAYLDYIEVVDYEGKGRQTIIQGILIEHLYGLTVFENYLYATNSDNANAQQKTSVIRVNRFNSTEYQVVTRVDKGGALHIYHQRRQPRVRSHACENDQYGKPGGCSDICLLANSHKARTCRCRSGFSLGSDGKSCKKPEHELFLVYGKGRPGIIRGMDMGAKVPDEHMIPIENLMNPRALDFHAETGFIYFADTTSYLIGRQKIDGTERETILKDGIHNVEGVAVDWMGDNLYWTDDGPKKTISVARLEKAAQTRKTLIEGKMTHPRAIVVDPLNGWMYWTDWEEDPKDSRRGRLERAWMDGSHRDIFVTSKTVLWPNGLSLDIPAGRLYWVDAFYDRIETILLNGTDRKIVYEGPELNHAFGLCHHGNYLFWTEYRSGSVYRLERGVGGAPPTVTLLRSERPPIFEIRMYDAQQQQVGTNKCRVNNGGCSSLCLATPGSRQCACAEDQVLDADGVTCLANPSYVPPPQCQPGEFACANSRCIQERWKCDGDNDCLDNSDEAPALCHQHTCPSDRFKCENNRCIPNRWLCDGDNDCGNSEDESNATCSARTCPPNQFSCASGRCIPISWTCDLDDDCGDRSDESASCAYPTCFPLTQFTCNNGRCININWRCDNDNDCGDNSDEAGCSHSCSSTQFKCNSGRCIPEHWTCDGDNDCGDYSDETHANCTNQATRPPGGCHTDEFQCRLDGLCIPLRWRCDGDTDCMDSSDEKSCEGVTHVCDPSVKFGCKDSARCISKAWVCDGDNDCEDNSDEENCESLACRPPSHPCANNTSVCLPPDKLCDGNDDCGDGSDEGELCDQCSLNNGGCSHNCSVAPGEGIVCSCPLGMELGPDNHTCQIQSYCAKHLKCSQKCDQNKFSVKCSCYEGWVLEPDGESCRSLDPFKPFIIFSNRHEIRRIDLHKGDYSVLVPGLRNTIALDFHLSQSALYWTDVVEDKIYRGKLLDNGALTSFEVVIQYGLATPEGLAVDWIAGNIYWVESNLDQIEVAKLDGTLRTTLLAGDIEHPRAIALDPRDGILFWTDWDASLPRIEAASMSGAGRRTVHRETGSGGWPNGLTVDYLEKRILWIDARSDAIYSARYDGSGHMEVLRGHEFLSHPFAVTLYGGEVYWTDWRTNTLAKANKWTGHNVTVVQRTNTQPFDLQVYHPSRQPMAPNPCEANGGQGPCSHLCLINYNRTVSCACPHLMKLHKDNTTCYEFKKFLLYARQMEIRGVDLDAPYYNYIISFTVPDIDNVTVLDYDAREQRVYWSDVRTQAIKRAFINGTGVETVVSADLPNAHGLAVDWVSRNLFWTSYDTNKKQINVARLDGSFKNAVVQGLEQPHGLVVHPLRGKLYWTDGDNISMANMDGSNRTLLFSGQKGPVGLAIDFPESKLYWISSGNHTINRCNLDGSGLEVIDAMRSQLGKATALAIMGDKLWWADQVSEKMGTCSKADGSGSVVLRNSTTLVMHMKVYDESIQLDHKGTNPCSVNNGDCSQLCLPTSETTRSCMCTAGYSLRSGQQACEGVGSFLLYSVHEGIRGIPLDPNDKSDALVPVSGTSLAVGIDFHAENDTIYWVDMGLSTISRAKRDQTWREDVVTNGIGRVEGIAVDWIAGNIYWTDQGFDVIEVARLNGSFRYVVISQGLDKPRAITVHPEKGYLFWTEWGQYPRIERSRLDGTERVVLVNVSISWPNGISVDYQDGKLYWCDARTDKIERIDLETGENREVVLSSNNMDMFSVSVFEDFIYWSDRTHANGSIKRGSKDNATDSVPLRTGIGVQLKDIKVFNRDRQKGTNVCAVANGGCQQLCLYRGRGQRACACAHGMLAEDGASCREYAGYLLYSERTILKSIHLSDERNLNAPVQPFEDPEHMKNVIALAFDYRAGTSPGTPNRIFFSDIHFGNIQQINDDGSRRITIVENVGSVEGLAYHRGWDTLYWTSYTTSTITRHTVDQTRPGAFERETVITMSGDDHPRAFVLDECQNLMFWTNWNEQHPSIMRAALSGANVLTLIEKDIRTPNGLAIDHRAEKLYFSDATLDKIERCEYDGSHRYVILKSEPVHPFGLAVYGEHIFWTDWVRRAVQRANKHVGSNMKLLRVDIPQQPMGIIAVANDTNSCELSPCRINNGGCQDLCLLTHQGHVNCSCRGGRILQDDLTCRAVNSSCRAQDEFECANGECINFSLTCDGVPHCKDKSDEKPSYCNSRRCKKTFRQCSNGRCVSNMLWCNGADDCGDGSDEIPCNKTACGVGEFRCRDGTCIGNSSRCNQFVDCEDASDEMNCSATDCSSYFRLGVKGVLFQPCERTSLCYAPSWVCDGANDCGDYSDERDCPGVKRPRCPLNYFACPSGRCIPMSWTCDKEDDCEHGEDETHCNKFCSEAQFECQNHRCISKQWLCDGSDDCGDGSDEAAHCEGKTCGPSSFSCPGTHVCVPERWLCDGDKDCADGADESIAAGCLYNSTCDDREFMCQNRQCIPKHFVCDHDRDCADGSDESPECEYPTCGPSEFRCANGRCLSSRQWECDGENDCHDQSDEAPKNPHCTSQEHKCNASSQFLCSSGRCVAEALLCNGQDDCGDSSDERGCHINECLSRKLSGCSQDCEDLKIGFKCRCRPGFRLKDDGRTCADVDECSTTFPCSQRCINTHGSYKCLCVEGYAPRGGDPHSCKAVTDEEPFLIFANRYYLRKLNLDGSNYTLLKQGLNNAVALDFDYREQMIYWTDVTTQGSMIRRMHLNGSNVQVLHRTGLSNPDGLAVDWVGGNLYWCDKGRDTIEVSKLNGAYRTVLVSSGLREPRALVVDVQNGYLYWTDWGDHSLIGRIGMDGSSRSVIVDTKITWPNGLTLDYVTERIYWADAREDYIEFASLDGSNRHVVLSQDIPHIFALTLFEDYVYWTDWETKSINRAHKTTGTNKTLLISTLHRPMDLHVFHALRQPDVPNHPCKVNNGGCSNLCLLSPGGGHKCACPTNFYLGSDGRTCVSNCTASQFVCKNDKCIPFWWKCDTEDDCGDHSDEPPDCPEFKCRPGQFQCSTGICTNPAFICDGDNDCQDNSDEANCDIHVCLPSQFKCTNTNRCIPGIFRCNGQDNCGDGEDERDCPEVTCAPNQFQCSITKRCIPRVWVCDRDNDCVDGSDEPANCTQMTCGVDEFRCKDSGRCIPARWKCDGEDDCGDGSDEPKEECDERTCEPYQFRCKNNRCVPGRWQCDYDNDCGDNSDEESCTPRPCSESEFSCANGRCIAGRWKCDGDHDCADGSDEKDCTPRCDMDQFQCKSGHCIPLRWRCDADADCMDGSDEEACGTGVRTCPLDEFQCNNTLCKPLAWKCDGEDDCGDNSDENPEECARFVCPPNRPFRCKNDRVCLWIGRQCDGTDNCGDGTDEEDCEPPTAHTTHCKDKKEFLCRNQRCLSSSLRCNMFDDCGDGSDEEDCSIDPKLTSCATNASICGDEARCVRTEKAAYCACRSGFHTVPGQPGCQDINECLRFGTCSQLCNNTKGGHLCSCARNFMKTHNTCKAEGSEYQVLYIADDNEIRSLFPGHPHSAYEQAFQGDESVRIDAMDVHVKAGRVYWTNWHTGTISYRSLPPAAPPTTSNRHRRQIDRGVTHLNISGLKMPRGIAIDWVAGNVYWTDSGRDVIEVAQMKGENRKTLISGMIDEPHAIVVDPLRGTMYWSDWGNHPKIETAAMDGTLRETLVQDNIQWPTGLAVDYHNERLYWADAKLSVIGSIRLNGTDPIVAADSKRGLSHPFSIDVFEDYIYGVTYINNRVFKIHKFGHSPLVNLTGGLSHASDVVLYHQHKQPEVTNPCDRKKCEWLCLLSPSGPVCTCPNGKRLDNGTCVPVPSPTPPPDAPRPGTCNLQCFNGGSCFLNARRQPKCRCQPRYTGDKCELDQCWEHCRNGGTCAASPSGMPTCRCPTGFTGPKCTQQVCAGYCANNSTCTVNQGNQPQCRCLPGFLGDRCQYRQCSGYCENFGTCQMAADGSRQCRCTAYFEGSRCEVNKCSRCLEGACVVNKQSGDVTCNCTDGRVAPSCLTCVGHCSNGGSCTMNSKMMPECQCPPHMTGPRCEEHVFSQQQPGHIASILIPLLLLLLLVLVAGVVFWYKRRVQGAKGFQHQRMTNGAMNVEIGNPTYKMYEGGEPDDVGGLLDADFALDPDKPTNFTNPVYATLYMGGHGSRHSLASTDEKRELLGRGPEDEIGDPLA
T5 sequence (P08254 100-272, stated change not applied): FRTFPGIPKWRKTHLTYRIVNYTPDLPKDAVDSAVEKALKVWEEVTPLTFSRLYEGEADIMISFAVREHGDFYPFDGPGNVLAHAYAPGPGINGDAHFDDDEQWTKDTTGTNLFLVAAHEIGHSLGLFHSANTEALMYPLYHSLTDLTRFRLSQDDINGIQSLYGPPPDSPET

Binder	Ki [1] [nM]	Ki [2] [nM]	Ki [3] [nM]	Ki [4] [nM]	Ki [5] [nM]	half-life of loss from the medium of HTB94 chondrosarcoma cells (1 nM, 0-24 h, anti-FLAG immunoblot and densitometry) [6] [h]	half-life of uptake from the medium of LRP1 wild-type PEA10 cells (1 nM, 0-8 h); remained at the same level in the medium of LRP1-null PEA13 cells [6] [h]	Ki (ADAM17 ectodomain) [nM]	Ki [7] [nM]
wild-type TIMP-3 (tissue inhibitor of metalloproteinases-3), C-terminally FLAG-tagged (natural protein, UniProt P35625 24-211, looked up, TIMP-3, secreted into the conditioned medium; source: for the screen also transiently transfected, conditioned medium dialyzed against TBS; not shown: FLAG, C-terminal, kept) CTCSPSHPQDAFCNSDIVIRAKVVGKKLVKEGPFGTLVYTIKQMKMYRGFTKMPHVQYIHTEASESLCGLKLEVNKYQYLLTGRVYDGKMYTGLCNFVERWDQLTLSQRKGLNYRYHLGCNCKIKSCYYLPCFVTSKNECLWTDMLSNFGYPGYQSKHYACIRQKGGYCSWYRGWAPPDKSIINATDP	1.2	1.27	0.19	0.6	1.2	3.6	1.9	3.54	–
TIMP-3 K42A/K110A, C-terminally FLAG-tagged (natural protein, UniProt P35625 24-211, looked up, TIMP-3, secreted into the conditioned medium; The discussion once calls this mutant K45A/K110A; source: for the screen also transiently transfected, conditioned medium dialyzed against TBS; not shown: FLAG, C-terminal, kept) CTCSPSHPQDAFCNSDIVIRAKVVGKKLVKEGPFGTLVYTIAQMKMYRGFTKMPHVQYIHTEASESLCGLKLEVNKYQYLLTGRVYDGKMYTGLCNFVERWDQLTLSQRAGLNYRYHLGCNCKIKSCYYLPCFVTSKNECLWTDMLSNFGYPGYQSKHYACIRQKGGYCSWYRGWAPPDKSIINATDP	0.6	1.12	0.24	0.6	1.4	–	–	2.34	1.2
